Source: publication PMC11969024 (2025)

B1: peptide HD2 (from tick evasin EVA4) / CCL18 (biotinylated, synthetic) (parent complex)
chain 1: EEDDYTAYAPLTCYFT
chain 2: AQVGTNKELCCLVYTSWQIPQKFIVDYSETSPQCPKPGVILLTKRGRQICADPNKKWVQKYISDLKLNA
B2: peptide HD2 (from tick evasin EVA4) / CCL8 (biotinylated, synthetic) (parent complex)
chain 1: EEDDYTAYAPLTCYFT
chain 2: QPDSVSIPITCCFNVINRKIPIQRLESYTRITNIQCPKEAVIFKTKRGKEVCADPKERWVRDSMKHLDQIFQNLKP

Variants of: B1

| Variant | enrichment |
| --- | --- |
| chain 1 F15Y | 1.67 log2 (difference from the parental peptide) |
| chain 1 D3P | 0.322 log2 (difference from the parental peptide) |
| chain 1 D3H | -1.21 log2 (difference from the parental peptide) |
| chain 1 D3Y | -1.47 log2 (difference from the parental peptide) |
| chain 1 Y8A | 0.303 log2 (difference from the parental peptide) |
| chain 1 Y8M | -6.37 log2 (difference from the parental peptide) |
| chain 1 Y5C | -5.9 log2 (difference from the parental peptide) |
| chain 1 Y5G | -3.5 log2 (difference from the parental peptide) |
| chain 1 Y5S | -3.37 log2 (difference from the parental peptide) |
| chain 1 E1V | -1.49 log2 (difference from the parental peptide) |
| chain 1 E1T | -0.938 log2 (difference from the parental peptide) |
| chain 1 T12G | -8.91 log2 (difference from the parental peptide) |
| chain 1 T12Q | -0.825 log2 (difference from the parental peptide) |
| chain 1 T16I | -0.207 log2 (difference from the parental peptide) |
| chain 1 E2C | -10.2 log2 (difference from the parental peptide) |
| chain 1 Y14R | -6.83 log2 (difference from the parental peptide) |
| chain 1 Y14L | -2.62 log2 (difference from the parental peptide) |
| chain 1 D4T | -3.75 log2 (difference from the parental peptide) |
| chain 1 D4M | -1.48 log2 (difference from the parental peptide) |
| chain 1 D4L | -2.06 log2 (difference from the parental peptide) |
| chain 1 T6Q | 1.41 log2 (difference from the parental peptide) |
| chain 1 C13Y | -5.14 log2 (difference from the parental peptide) |

Variants of: B2

| Variant | enrichment |
| --- | --- |
| chain 1 T12W | -1.55 log2 (difference from the parental peptide) |
| chain 1 T12E | -0.507 log2 (difference from the parental peptide) |
| chain 1 T12R | 0.0146 log2 (difference from the parental peptide) |
| chain 1 T12Q | 0.904 log2 (difference from the parental peptide) |
| chain 1 T12K | -0.15 log2 (difference from the parental peptide) |
| chain 1 T12L | 0.285 log2 (difference from the parental peptide) |
| chain 1 T12S | 0.405 log2 (difference from the parental peptide) |
| chain 1 T12C | -5.83 log2 (difference from the parental peptide) |
| chain 1 T12N | 0.576 log2 (difference from the parental peptide) |
| chain 1 T12Y | -0.212 log2 (difference from the parental peptide) |
| chain 1 A9S | 0.31 log2 (difference from the parental peptide) |
| chain 1 A9G | -0.437 log2 (difference from the parental peptide) |
| chain 1 A9V | -3.26 log2 (difference from the parental peptide) |
| chain 1 A9C | -9.61 log2 (difference from the parental peptide) |
| chain 1 A9Q | 0.272 log2 (difference from the parental peptide) |
| chain 1 A9T | -0.868 log2 (difference from the parental peptide) |
| chain 1 A9Y | -4.23 log2 (difference from the parental peptide) |
| chain 1 A9M | -1.3 log2 (difference from the parental peptide) |
| chain 1 A9K | -1.29 log2 (difference from the parental peptide) |
| chain 1 T16Q | 1.96 log2 (difference from the parental peptide) |
| chain 1 T16L | 0.738 log2 (difference from the parental peptide) |
| chain 1 T16A | 1.43 log2 (difference from the parental peptide) |
| chain 1 T16H | 0.233 log2 (difference from the parental peptide) |
| chain 1 T16I | 0.743 log2 (difference from the parental peptide) |
| chain 1 T16E | 1.25 log2 (difference from the parental peptide) |
| chain 1 T16F | 0.115 log2 (difference from the parental peptide) |

| Variant | enrichment |
| --- | --- |
| chain 1 T16R | 0.603 log2 (difference from the parental peptide) |
| chain 1 T16M | 0.502 log2 (difference from the parental peptide) |
| chain 1 T16P | 1.42 log2 (difference from the parental peptide) |
| chain 1 T16S | 1.37 log2 (difference from the parental peptide) |
| chain 1 Y14P | -2.37 log2 (difference from the parental peptide) |
| chain 1 Y14N | 0.255 log2 (difference from the parental peptide) |
| chain 1 Y14C | -2.25 log2 (difference from the parental peptide) |
| chain 1 Y14I | 1.29 log2 (difference from the parental peptide) |
| chain 1 Y14M | 1.03 log2 (difference from the parental peptide) |
| chain 1 Y14W | 0.518 log2 (difference from the parental peptide) |
| chain 1 Y14L | 0.559 log2 (difference from the parental peptide) |
| chain 1 Y14H | 1.41 log2 (difference from the parental peptide) |
| chain 1 Y14A | -0.507 log2 (difference from the parental peptide) |
| chain 1 Y8M | -6.01 log2 (difference from the parental peptide) |
| chain 1 Y8T | -8 log2 (difference from the parental peptide) |
| chain 1 Y8I | -8.9 log2 (difference from the parental peptide) |
| chain 1 Y8V | -4.32 log2 (difference from the parental peptide) |
| chain 1 Y8R | -6.7 log2 (difference from the parental peptide) |
| chain 1 Y8L | -7.29 log2 (difference from the parental peptide) |
| chain 1 Y8C | -9.2 log2 (difference from the parental peptide) |
| chain 1 D4M | -3.9 log2 (difference from the parental peptide) |
| chain 1 D4Q | -1.83 log2 (difference from the parental peptide) |
| chain 1 D4Y | -2.68 log2 (difference from the parental peptide) |
| chain 1 D4W | -3.2 log2 (difference from the parental peptide) |
| chain 1 D4I | -3.36 log2 (difference from the parental peptide) |
| chain 1 E1F | -2.08 log2 (difference from the parental peptide) |

| Variant | enrichment |
| --- | --- |
| chain 1 E1S | -0.455 log2 (difference from the parental peptide) |
| chain 1 E1I | -1.02 log2 (difference from the parental peptide) |
| chain 1 E1W | -2.25 log2 (difference from the parental peptide) |
| chain 1 E1M | -0.394 log2 (difference from the parental peptide) |
| chain 1 E1H | -1.32 log2 (difference from the parental peptide) |
| chain 1 E1K | -2.59 log2 (difference from the parental peptide) |
| chain 1 E1T | -1.11 log2 (difference from the parental peptide) |
| chain 1 E1N | -0.349 log2 (difference from the parental peptide) |
| chain 1 T6Y | -0.847 log2 (difference from the parental peptide) |
| chain 1 T6R | -0.801 log2 (difference from the parental peptide) |
| chain 1 T6F | -4.21 log2 (difference from the parental peptide) |
| chain 1 T6H | -0.816 log2 (difference from the parental peptide) |
| chain 1 T6W | -0.802 log2 (difference from the parental peptide) |
| chain 1 T6E | 2.76 log2 (difference from the parental peptide) |
| chain 1 T6D | 2.7 log2 (difference from the parental peptide) |
| chain 1 T6K | -1.83 log2 (difference from the parental peptide) |
| chain 1 T6L | -2.32 log2 (difference from the parental peptide) |
| chain 1 T6G | 2.04 log2 (difference from the parental peptide) |
| chain 1 Y5W | -0.0149 log2 (difference from the parental peptide) |
| chain 1 Y5N | -4.9 log2 (difference from the parental peptide) |
| chain 1 Y5I | -2.45 log2 (difference from the parental peptide) |
| chain 1 Y5T | -4.38 log2 (difference from the parental peptide) |
| chain 1 Y5E | -1.42 log2 (difference from the parental peptide) |
| chain 1 Y5P | -6.25 log2 (difference from the parental peptide) |
| chain 1 Y5F | -0.0383 log2 (difference from the parental peptide) |
| chain 1 Y5D | -3.76 log2 (difference from the parental peptide) |

| Variant | enrichment |
| --- | --- |
| chain 1 Y5V | -3.14 log2 (difference from the parental peptide) |
| chain 1 D3T | -3.23 log2 (difference from the parental peptide) |
| chain 1 D3H | -2.58 log2 (difference from the parental peptide) |
| chain 1 D3K | -4.88 log2 (difference from the parental peptide) |
| chain 1 D3E | 0.904 log2 (difference from the parental peptide) |
| chain 1 D3S | -2.23 log2 (difference from the parental peptide) |
| chain 1 D3R | -4.97 log2 (difference from the parental peptide) |
| chain 1 L11K | 1.95 log2 (difference from the parental peptide) |
| chain 1 L11D | -2.06 log2 (difference from the parental peptide) |
| chain 1 L11R | 1.57 log2 (difference from the parental peptide) |
| chain 1 L11C | 1.32 log2 (difference from the parental peptide) |
| chain 1 L11A | 0.754 log2 (difference from the parental peptide) |
| chain 1 P10N | -7.54 log2 (difference from the parental peptide) |
| chain 1 P10S | -8.71 log2 (difference from the parental peptide) |
| chain 1 P10W | -8.37 log2 (difference from the parental peptide) |
| chain 1 P10E | -7.42 log2 (difference from the parental peptide) |
| chain 1 P10T | -7.38 log2 (difference from the parental peptide) |
| chain 1 C13I | -0.427 log2 (difference from the parental peptide) |
| chain 1 C13E | -4.45 log2 (difference from the parental peptide) |
| chain 1 C13F | -0.473 log2 (difference from the parental peptide) |
| chain 1 C13L | -1.06 log2 (difference from the parental peptide) |
| chain 1 C13G | -1.56 log2 (difference from the parental peptide) |
| chain 1 C13A | -2.32 log2 (difference from the parental peptide) |
| chain 1 C13Y | -0.338 log2 (difference from the parental peptide) |
| chain 1 F15L | 1.43 log2 (difference from the parental peptide) |
| chain 1 F15E | 1.9 log2 (difference from the parental peptide) |

| Variant | enrichment |
| --- | --- |
| chain 1 F15Q | 2.57 log2 (difference from the parental peptide) |
| chain 1 F15G | 0.793 log2 (difference from the parental peptide) |
| chain 1 F15A | 2.51 log2 (difference from the parental peptide) |
| chain 1 F15T | 2.65 log2 (difference from the parental peptide) |
| chain 1 F15R | 1.7 log2 (difference from the parental peptide) |
| chain 1 F15M | 2.61 log2 (difference from the parental peptide) |
| chain 1 F15K | 2.15 log2 (difference from the parental peptide) |
| chain 1 F15I | 1.54 log2 (difference from the parental peptide) |
| chain 1 F15D | 0.871 log2 (difference from the parental peptide) |
| chain 1 E2W | -1.39 log2 (difference from the parental peptide) |
| chain 1 E2K | -2.67 log2 (difference from the parental peptide) |
| chain 1 E2N | -1.75 log2 (difference from the parental peptide) |
| chain 1 E2Q | -2.83 log2 (difference from the parental peptide) |
| chain 1 E2R | -3.19 log2 (difference from the parental peptide) |
| chain 1 A7G | 0.697 log2 (difference from the parental peptide) |
| chain 1 A7T | 0.325 log2 (difference from the parental peptide) |
| chain 1 A7Q | 0.712 log2 (difference from the parental peptide) |
| chain 1 A7F | -0.605 log2 (difference from the parental peptide) |
| chain 1 A7H | -0.321 log2 (difference from the parental peptide) |
| chain 1 A7Y | -0.0899 log2 (difference from the parental peptide) |
| chain 1 A7R | -0.287 log2 (difference from the parental peptide) |
| chain 1 A7L | 0.505 log2 (difference from the parental peptide) |
| chain 1 A7N | 1.02 log2 (difference from the parental peptide) |
| chain 1 A7C | -9.36 log2 (difference from the parental peptide) |
